Laboratory results reported in US20240025971A1 (ATRECA, published 2024).

How the values were obtained:
[1] = biological target: T1, SARS-CoV-2 Receptor Binding Domain (RBD) (SARS-CoV-2, UniProt P0DTC2 319-541); experiment: BLI
T1 construct: also called RBD protein

SARS-CoV-2 S1 protein = biological target: T2, SARS-CoV-2 S1 protein (SARS-CoV-2, UniProt P0DTC2 16-685); experiment: BLI
T2 construct: domain: S1 protein; also called S1 monomer

SARS-CoV-2 S2 protein = biological target: T3, SARS-CoV-2 S2 protein (SARS-CoV-2, UniProt P0DTC2 686-1213); experiment: BLI
T3 construct: domain: S2 protein; also called S2 monomer

[2] = biological target: T4, SARS-CoV-2 Spike (S) trimer (SARS-CoV-2, UniProt P0DTC2 14-1208); experiment: ELISA
T4 construct: also called Spike trimer

[3] = biological target: SARS-CoV-2 Envelope (E) protein (SARS-CoV-2, UniProt P0DTC4 1-75); experiment: ELISA, Envelope protein
[4] = biological target: SARS-CoV-2 Spike (S) trimer (SARS-CoV-2, UniProt P0DTC2 14-1208); experiment: ELISA, S trimer coated, 1:50 dilution

Row | Binder | binding result [1] | binding result (SARS-CoV-2 S1 protein) | binding result (SARS-CoV-2 S2 protein) | binding result [2] | Optical Density (OD; 450 nm) [3] | Optical Density (OD; 450 nm) [4]
1 | AB-009190 (antibody, V domains shown, human IgG1) VH: QVQLVESGGGVVQPGRSLRLSCAASGFTFSSYAMHWVRQAPGKGLEWVAVISYDGSNKYYADSVKGRFTISRDNSKNTLYLQMNSLRAEDTAVYYCARLNGDAYYYYGMDVWGQGTTVTVSS VL: not shown | no binding (tested: 300 nM) | no binding (tested: 300 nM) | no binding (tested: 300 nM) | no binding (tested: 2-fold over hIgG1 background) | 0.469 OD450 | 
2 | AB-009634 (antibody, V domains shown) VH: QVTLKESGPALVKPTQTLTLTCTFSGFSLSTSGMRVSWIRQPPGKALEWLARIDWDDDKFYSTSLKTRLTISKDTSKNQVVLTMTNMDPVDTATYYCARYYYYGMDVWGQGTTVTVSS VL: not shown |  |  |  |  |  | 2.46 OD450
